According to the supplement of paper PMC7877785:
± gives the uncertainty stated by the source.

Assay: self-splicing fitness, log relative to wild type (ln ratio); higher = more splicing; Tetrahymena group I intron in knt gene, E. coli kanamycin selection, DiMSum; sequences stand for … in CUCUCU…GGAGGGAAAAGUUAUCAGGCAUGCACCUGGUAGCUAGUCUUUAAACCAAUAGAUUGCAUCGGUUUAAAAGGCAAGACCGUCAAAUUGCGGGAAAGGGGUCAACAGCCGUUCAGUACCAAGUCUCAGGGGAAACUUUGAGAUGGCCUUGCAAAGGGUAUGGUAAUAAGCUGACGGACAUGGUCCUAACCACGCAGCCAAGUCCUAAGUCAACAGAUCUUCUGUUGAUAUGGAUGCAGUUCACAGACUAAAUGUCGGUCGGGGAAGAUGUAUUCUUCUCAUAAGAUAUAGUCGGACCUCUCCUUAAUGGGAGCUAGCGGAUGAAGUGAUGCAACACUGGAGCCGCUGGGAACUAAUUUGUAUGCGAAAGUAUAUUGAUUAGUUUUGGAGUACUCGUGGUCG
Method in brief: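 The eight P1ex-region nucleotides of an intron in the knt kanamycin-resistance gene on pET-22b(+) were all randomised and the library put into E. coli BL21(DE3). Six replicate transformations were grown overnight at 37°C or 30°C on LB agar with or without 25 μg/mL kanamycin, together with 100 μg/mL carbenicillin, 50 μM IPTG and 0.2% rhamnose. Colonies were pooled and amplicon-sequenced on an Illumina HiSeq 2500. Fitness from DiMSum is the error-weighted combination of wild-type-normalised replicate fold changes, kanamycin over none.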

| Sequence | self-splicing fitness (ln) (30 °C) | self-splicing fitness (ln) (37 °C) |
| --- | --- | --- |
| GGAAAGCAAUAUUACGGAUU | -1.93 ± 0.085 | -0.946 ± 0.11 |
| CAACAGCAAUAUUACGUAGA | -2.68 ± 0.081 | -1.18 ± 0.081 |
| UAGUAGCAAUAUUACGUAAA | -3.01 ± 0.21 | -1.03 ± 0.15 |
| UCAAAGCAAUAUUACGGAUC | -3.94 ± 0.41 | -3.23 ± 0.4 |
| CUCGAGCAAUAUUACGCGGG | -3.9 ± 0.39 |  |
| UUUAAGCAAUAUUACGUGAC | -3.33 ± 0.21 | -2.11 ± 0.21 |
| CCAGAGCAAUAUUACGCACC |  | -2.37 ± 0.34 |
| CGUGAGCAAUAUUACGUGGC | -3.73 ± 0.37 | -3.16 ± 0.4 |
| GUGGAGCAAUAUUACGUGGU | -2.9 ± 0.27 | -2.51 ± 0.28 |
| CCCUAGCAAUAUUACGUACG | -2.86 ± 0.18 | -2.81 ± 0.27 |
| GUACAGCAAUAUUACGUUGA | -2.77 ± 0.12 | -1.59 ± 0.095 |
| GUGAAGCAAUAUUACGUUCC | -1.67 ± 0.17 | -1.16 ± 0.2 |
| CUACAGCAAUAUUACGUCCG | -0.955 ± 0.095 | 0.368 ± 0.12 |
| ACUGAGCAAUAUUACGCGUG | -2.2 ± 0.092 | -1.05 ± 0.1 |
| GCGAAGCAAUAUUACGGAAG | -2.62 ± 0.18 | -1.93 ± 0.16 |
| GUUAAGCAAUAUUACGUAGC | -2.84 ± 0.19 | -1.86 ± 0.26 |
| UAUAAGCAAUAUUACGACUU | -0.386 ± 0.13 | -0.681 ± 0.13 |
| AGACAGCAAUAUUACGUUUU | -3 ± 0.13 | -3.77 ± 0.24 |
| AGGCAGCAAUAUUACGGAAG | -2.92 ± 0.13 | -1.98 ± 0.15 |

| Sequence | self-splicing fitness (ln) (30 °C) | self-splicing fitness (ln) (37 °C) |
| --- | --- | --- |
| UAUAAGCAAUAUUACGAGGC |  | -2.5 ± 0.39 |
| AUGGAGCAAUAUUACGAUGC | -2.15 ± 0.37 | -2.04 ± 0.35 |
| ACUAAGCAAUAUUACGCAUG | -2.31 ± 0.091 | -0.766 ± 0.091 |
| GCAAAGCAAUAUUACGUACC | -0.781 ± 0.081 | -0.64 ± 0.12 |
| GACAAGCAAUAUUACGCCGU | -2.93 ± 0.14 | -0.97 ± 0.12 |
| CCGAAGCAAUAUUACGUAGG | -3.15 ± 0.17 | -2.65 ± 0.23 |
| AGCCAGCAAUAUUACGCCCA | -1.93 ± 0.2 | -1.72 ± 0.25 |
| CAAUAGCAAUAUUACGAUGG | -1.09 ± 0.074 | -0.114 ± 0.096 |
| CCCGAGCAAUAUUACGGUCC | -2.99 ± 0.26 | -2.61 ± 0.22 |
| GACCAGCAAUAUUACGAUCU | -0.841 ± 0.091 | -0.153 ± 0.1 |
| UGGCAGCAAUAUUACGAGUU | -4.06 ± 0.3 | -2.48 ± 0.24 |
| AGCGAGCAAUAUUACGUAAU | -3.21 ± 0.14 | -2.04 ± 0.14 |
| CCCCAGCAAUAUUACGAGGG | -3.83 ± 0.15 | -2.78 ± 0.18 |
| AAGAAGCAAUAUUACGAUGC | -2.61 ± 0.13 | -1.76 ± 0.17 |
| ACGUAGCAAUAUUACGGCUU | 0.0669 ± 0.089 | 0.194 ± 0.11 |
| AUGGAGCAAUAUUACGGCCC | -1.13 ± 0.24 | -1.43 ± 0.31 |
| UAAAAGCAAUAUUACGUACG | -0.745 ± 0.084 | 0.35 ± 0.12 |
| ACAGAGCAAUAUUACGGUGA | -2.32 ± 0.13 | -2.41 ± 0.21 |
| CAGAAGCAAUAUUACGUUAG | -0.919 ± 0.077 | -0.262 ± 0.097 |
